Laboratory results taken from patent publication US9322000B2, “Methanol dehydrogenase enzymes from Bacillus” (Sinvent AS, priority 2012, dated 2016).

B1: Mdh-MGA3: previously reported plasmid pBM19-encoded NAD-dependent methanol dehydrogenase of B. methanolicus MGA3, SEQ ID NO. 8 (protein)
chain: MTTNFFIPPASVIGRGAVKEVGTRLKQIGAKKALIVTDAFLHSTGLSEEVAKNIREAGVDVAIFPKAQPDPADTQVHEGVDVFKQENCDSLVSIGGGSSHDTAKAIGLVAANGGRINDYQGVNSVEKPVVPVVAITTTAGTGSETTSLAVITDSARKVKMPVIDEKITPTVAIVDPELMVKKPAGLTIATGMDALSHAIEAYVAKGATPVTDAFAIQAMKLINEYLPKAVANGEDIEAREKMAYAQYMAGVAFNNGGLGLVHSISHQVGGVYKLQHGICNSVNMPHVCAFNLIAKTERFAHIAELLGENVAGLSTAAAAERAIVALERINKSFGIPSGYAEMGVKEEDIELLAKNAYEDVCTQSNPRVPTVQDIAQIIKNAM
modifications: Bacillus methanolicus MGA3
B2: Mdh3-MGA3: NAD-dependent methanol dehydrogenase encoded by chromosomal gene mdh3 of B. methanolicus MGA3, SEQ ID NO. 4 (protein)
chain: MKNTQSAFYMPSVNLFGAGSVNEVGTRLAGLGVKKALLVTDAGLHSLGLSEKIAGIIREAGVEVAIFPKAEPNPTDKNVAEGLEAYNAENCDSIVTLGGGSSHDAGKAIALVAANGGTIHDYEGVDVSKKPMVPLIAINTTAGTGSELTKFTIITDTERKVKMAIVDKHVTPTLSINDPELMVGMPPSLTAATGLDALTHAIEAYVSTGATPITDALAIQAIKIISKYLPRAVANGKDIEAREQMAFAQSLAGMAFNNAGLGYVHAIAHQLGGFYNFPHGVCNAILLPHVCRFNLISKVERYAEIAAFLGENVDGLSTYEAAEKAIKAIERMARDLNIPKGFKELGAKEEDIETLAKNAMNDACALTNPRKPKLEEVIQIIKNAM
modifications: Bacillus methanolicus MGA3
B3: Mdh2-MGA3: NAD-dependent methanol dehydrogenase encoded by chromosomal gene mdh2 of B. methanolicus MGA3, SEQ ID NO. 2 (protein)
chain: MTNTQSAFFMPSVNLFGAGSVNEVGTRLADLGVKKALLVTDAGLHGLGLSEKISSIIRAAGVEVSIFPKAEPNPTDKNVAEGLEAYNAENCDSIVTLGGGSSHDAGKAIALVAANGGKIHDYEGVDVSKEPMVPLIAINTTAGTGSELTKFTIITDTERKVKMAIVDKHVTPTLSINDPELMVGMPPSLTAATGLDALTHAIEAYVSTGATPITDALAIQAIKIISKYLPRAVANGKDIEAREQMAFAQSLAGMAFNNAGLGYVHAIAHQLGGFYNFPHGVCNAVLLPYVCRFNLISKVERYAEIAAFLGENVDGLSTYDAAEKAIKAIERMAKDLNIPKGFKELGAKEEDIETLAKNAMKDACALTNPRKPKLEEVIQIIKNAM
modifications: Bacillus methanolicus MGA3

Experiments:
[1] = Formaldehyde reductase assay of purified MDH proteins; format: biochemical; settings: 45° C., formaldehyde reductase activity; for Km: read-out: Km, variable substrate Formaldehyde
Procedure: Alcohol dehydrogenase activities were measured spectrophotometrically essentially as described previously (Hektor, Kloosterman et al. (2002) Chem 277(49): 46966-46973) and the reaction mixture contained: 100 mM Glycine-KOH pH 9.5 (unless otherwise stated), 5 mM MgSO4, 0.5 mM NAD^+ and 500 mM alcohol (methanol, ethanol, propanol, 1,3-propanediol, or butanol). NAD^+ was substituted with equal concentrations of NADP^+, FMN^+, and FAD^+, when indicated. The reaction mixture for measurements of formaldehyde reductase activity contained: 50 mM Potassium-phosphate buffer pH=6.7, 0.15 mM NADH, 1 mM DTT and 11.6 mM (0.1-116 mM) formaldehyde. The assay components were mixed in the cuvette and pre-warmed to 45° C., unless otherwise stated. The reactions were started by addition of 5-40 μg of the purified MDH proteins, and the production of NADH was monitored at 340 nm for 4 minutes. One unit of MDH activity was defined as the amount of enzyme needed to produce 1 μmol NADH per minute under the conditions described above. Purified Act (0.1-40 μg) or NudF (20 μg) proteins were added to the reaction mixtures as indicated in the text.
The purified MDH and Act proteins (20 μg) were used in the kinetic experiments performing the methanol dehydrogenase and the formaldehyde dehydrogenase assays essentially as described above. […] For determination of the Km for NAD^+ (Km,NAD+) and Vmax, the methanol concentration was kept constant at a saturating level (500 mM), while the concentration of NAD^+ was varied (5-1000 μM). […] Act (20 μg) was added to the reaction mixtures for determination of Kμ,MεOH and Vmax values in the presence of this activator, as indicated in the text. In general, the slopes of activity versus time were linear in the measured period (data not shown). Km and Vmax values were calculated by using nonlinear regression with the Microsoft Excel solver-tool to fit the measured data to the Michaelis-Menten equation, as described previously (Jakobsen et al., (2009) Appl Environ Microbiol 75(3): 652-661). The values obtained from the regression were then compared to the values obtained from Lineweaver-Burk and Hanes-Woolf plots to ensure that the global minimum, not a local minimum, had been found.

[2] = In vivo Mdh activity in cell suspensions of recombinant E. coli (formaldehyde accumulating in supernatant); format: cell-based; settings: E. coli cell suspension
Text: The genes coding for Mdh and the Mdh activator protein Act were amplified from pET21a-plasmids harboring genes from B. methanolicus strains MGA3 (mdh-MGA3, mdh2-MGA3, mdh3-MGA3 and act-MGA3) and PB1 (mdh-PB1, mdh1-PB1 and mdh2-PB1). The genes were then cloned either into the pSEVA424 plasmid (mdh genes) or in the pSEVA131 plasmid (act gene). For cloning of mdh-MGA3, mdh-PB1, mdh1-PB1 and act-MGA3, EcoRI and HindIII restrictions sites were used, while mdh2-MGA3, mdh2-PB1 and mdh3-MGA3 were cloned by using EcoRI and PstI restriction sites. The resulting expression vectors were transformed into electrocompetent wt E. coli K-12 (BW25113) and into E. coli K-12 (BW25113) with a deleted frmA gene.
Expression Experiments For expression experiments, the cells were cultivated in either Luria-Bertani (LB) medium for in vitro assays or in M9 medium for in vivo assays both containing 20 μg/ml streptomycin for pSEVA424. When Act was co-expressed the medium was supplemented with 100 μg/ml ampicillin. Expression was induced when cells reached OD 0.5 (for in vitro tests) or OD 1 (for in vivo tests) by adding 0.1 mM IPTG (final concentration) for 6 hours. Cells were then harvested by centrifugation. For in vitro assays, crude cell extract was prepared by lysing the cells in a French press following ultracentrifugation. Alternatively, cells were resuspended in M9-medium without glucose for in vivo activity measurements. Enzyme Assays
In vivo measurements of Mdh activity: For determination of Mdh activity in cell suspensions, cells were harvested after IPTG induction, washed and resuspended in M9-medium without glucose and IPTG. OD600 was set to 1 for normalization. […] The assay was started by addition of 1 M methanol and subsequent measurement of accumulating formaldehyde in the supernatant resulting from the methanol dehydrogenase catalyzed oxidation of methanol. The calculated activities were based on the assumption that 1 l of an OD1 culture contains 0.3 g biomass of which 50% is protein.

[3] = In vitro methanol dehydrogenase activity in lysates of recombinant B. subtilis 168; format: biochemical; settings: for methanol dehydrogenase activity on expression in B. subtilis (in words): 50° C., pH 9.5
Procedure: B. subtilis 168 cells were transformed with the act-MGA3, mdh-MGA3, mdh2-MGA3, and mdh3-MGA3 expression plasmids, and the analogous vectors coexpressing each of the methanol dehydrogenase genes with the act-MGA3 gene. Positive colonies were picked from the plate and the plasmid was isolated and checked by restriction for positive clones. Colonies were picked from plate and grown overnight at 37° C. (250 rpm) and diluted to OD600=0.1 in 20 ml LB containing chloramphenicol (5 μg/ml). After 3 hrs of growth at 37° C. (250 rpm), 500 μl 40% xylose were added to the culture to induce expression. The culture was grown for another 3 hrs and samples of 2 ml were taken. The sample was spun down for 2 min, 11.000×g and the supernatant was removed. The pellet was resuspended in 300 μl Birnboim A for B. subtilis (10 mM Tris-HCl pH 8.0; 20% sucrose; 50 mM NaCl; 0.25 mg/ml lysozyme; protease inhibitor) and incubated at 37° C. for 30 minutes. The samples were stored at −80° C. before use. In addition, we took advantage of recombinant E. coli cells constructed in the project expressing mdh-MGA3, mdh2-MGA3, mdh3-MGA3 and act-MGA3 from the pET21a plasmid in the in vitro assays.
The activities of the Mdh proteins were measured by following the formation of NADH spectrophoto-metrically. The reaction mixture contained: • 100 μl Glycine-KOH (pH 9.5) • 100 μl 5M Methanol (or 5M ethanol) • 5 μl 1M MgSO4 • 10 μl 50 mM NAD^+ • 10 μl sample • (10 μl E. coli act-pET21a lysate) • 775 μl H2O
The cuvets and reaction mixture without cell lysate were pre-incubated at 50° C. Formation of NADH was followed for 10 minutes at 340 nm at 50° C. The total activity was calculated by dividing the increase in absorption units per min by the extinction coefficient ([…]) and the total protein concentration in U/mg total protein. All assays were performed both by using methanol and ethanol as alternative substrates.

Row | Molecule | Vmax, variable substrate Formaldehyde [1] | Km [1] | In vivo activity ([2]; 37° C., +Act) | In vivo activity ([2]; 37° C., −Act) | In vivo activity ([2]; 42° C., +Act) | In vivo activity ([2]; 42° C., −Act) | methanol dehydrogenase activity on expression in B. subtilis (in words) [3] | ranking of activity in B. subtilis ([3]; Act supplied from E. coli lysates) | ranking of activity in B. subtilis ([3]; act and mdh gene co-expressed from the same plasmid)
1 | B1 | 1.4 U/mg | 1 mM | 1 mU/mg | 1 mU/mg | 1 mU/mg | 3 mU/mg | expressed active methanol dehydrogenases | most active | 
2 | B2 | 5 U/mg | 15 mM | 11 mU/mg | 24 mU/mg | 24 mU/mg | 31 mU/mg | expressed active methanol dehydrogenases |  | 
3 | B3 | 1.5 U/mg | 5 mM | 9 mU/mg | 32 mU/mg | 11.3 mU/mg | 45 mU/mg | expressed active methanol dehydrogenases |  | most active
